This is an account of results in the RNAGym collection of RNA variant scans (doi:10.7554/elife.90254).

B1: LINE1-mini (parent)
chain: GGCAGAGCUCAACACAGCGUGGCAAAGUGGCUGUGGCUAGACUGCC

Variants of B1 are the subject of the data set. Briefly: self-cleavage, relative activity (ratio to wild type); higher = more cleavage; in vitro, sequencing; the parent is a self-cleaving ribozyme.
As to G27C G40A, the self-cleavage is 0.12.
To U28A A39G belongs 0.05.
On to U28A A39U, for which the self-cleavage worked out at 0.39.
To U28A A39C belongs 0.15; to G27A C45G, 0.51.
For G27A C45A, the self-cleavage was determined as 0.79.
For the variant G27A C45U, the self-cleavage is 1.88.
Consider U28G C45G, for which the self-cleavage was 0.27.
The same measure for U28G C45U: 0.92; for U28G C45A: 0.44.
The same measure for G27A G35A: 0.19; for G27A G35U: 0.22.
On to G27A G35C, for which the self-cleavage is 0.12.
The same measure for U28G G33C: 0.05.
As for U28G G33A, the self-cleavage turned out to be 0.11.
On to U28G G33U, for which the self-cleavage came out at 0.06.
To G27C U28C belongs 1.12.
As to G27C U28G, the self-cleavage stood at 0.51.
The same measure for G27C U28A: 0.54; for U28A G36A: 0.14.
As to U28A G36U, the self-cleavage is 0.08.
For U28A G36C, the self-cleavage turned out to be 0.06.
Turning to U28G A39G, the self-cleavage came to 0.07.
To U28G A39C belongs 0.05; to U28G A39U, 0.56.
The same measure for G27A C46U: 2.06; for G27A C46G: 1.05.
The same measure for G27A C46A: 1.19; for A26U U43C: 0.12.
Take A26U U43A: the self-cleavage amounted to 0.08.
Consider A26U U43G, for which the self-cleavage came to 0.09.
U28G A41G: the self-cleavage amounted to 0.27.
Take U28G A41C: the self-cleavage amounted to 0.04.
The same measure for U28G A41U: 0.52.
On to U28C G30A, for which the self-cleavage amounted to 0.96.
To U28C G30U belongs 0.7; to U28C G30C, 0.64.
G27U U28A: the self-cleavage came to 0.34.
To G27U U28C belongs 1.23.
The same measure for G27U U28G: 1.08.
The same measure for G27U G36U: 0.04.
On to G27U G36C, for which the self-cleavage was found to be 0.1.
As to G27U G36A, the self-cleavage turned out to be 0.4.
As for G27A G44U, the self-cleavage was 0.3.
Take G27A G44A: the self-cleavage stood at 0.34.
Take G27A G44C: the self-cleavage is 0.65.
To G27U A39C belongs 0.22.
For the variant G27U A39U, the self-cleavage was determined as 0.56.
With G27U A39G, the self-cleavage turned out to be 0.22.
For the variant G27C C45A, the self-cleavage is 0.29.
To G27C C45U belongs 2.02; to G27C C45G, 0.32.
To U28A C46U belongs 0.66; to U28A C46A, 1.23; to U28A C46G, 0.87.
The same measure for U28G C42A: 0.18.
As for U28G C42G, the self-cleavage stood at 0.03.
For U28G C42U, the self-cleavage came to 0.31.
To U28A C37A belongs 0.04; to U28A C37G, 0.04.
The same measure for U28A C37U: 0.04; for U28A G44C: 0.62.
The same measure for U28A G44A: 0.23; for U28A G44U: 0.33.
U28A A41C: the self-cleavage came out at 0.03.
With U28A A41G, the self-cleavage was found to be 0.3.
U28A A41U: the self-cleavage was determined as 0.42.
To G27C C31U belongs 0.07; to G27C C31A, 0.15.
To G27C C31G belongs 0.05; to G27U G33U, 0.07.
As for G27U G33A, the self-cleavage was 0.09.
For G27U G33C, the self-cleavage was 0.07.
Consider G27C C42U, for which the self-cleavage stood at 0.11.
The same measure for G27C C42A: 0.07; for G27C C42G: 0.09.
The same measure for U28G C46G: 0.99; for U28G C46U: 0.36; for U28G C46A: 1.1.
The same measure for U28A C45G: 0.24.
Take U28A C45U: the self-cleavage was determined as 1.28.
U28A C45A: the self-cleavage was 0.29.
On to G27U G35U, for which the self-cleavage was 0.24.
To G27U G35C belongs 0.09; to G27U G35A, 0.18; to G27A U32A, 0.06.
To G27A U32G belongs 0.21; to G27A U32C, 0.15; to A26U U34G, 0.15.
Turning to A26U U34C, the self-cleavage worked out at 0.18.
To A26U U34A belongs 0.07; to U28A G40U, 0.12.
The same measure for U28A G40A: 0.1; for U28A G40C: 0.09.
Take A26U G44A: the self-cleavage amounted to 0.64.
The same measure for A26U G44U: 0.41.
The same measure for A26U G44C: 0.64; for G27A G40A: 0.18.
The same measure for G27A G40C: 0.17; for G27A G40U: 0.14.
For G27A U38G, the self-cleavage worked out at 0.02.
To G27A U38C belongs 0.26.
Regarding G27A U38A, the self-cleavage turned out to be 0.28.
To U28A U32C belongs 0.18; to U28A U32G, 0.3; to G27C G44A, 0.47.
To G27C G44C belongs 0.14; to G27C G44U, 0.38.
To U28C A39U belongs 1; to U28C A39C, 0.1.
For the variant U28C A39G, the self-cleavage amounted to 0.09.
For the variant G27A, the self-cleavage is 0.81.
Consider G27C, for which the self-cleavage was found to be 0.72.
Regarding G27U, the self-cleavage was 0.83.
The same measure for U28A G33A: 0.06.
U28A G33U: the self-cleavage was 0.16.
To U28A G33C belongs 0.03; to G27A U28G, 0.4.
Turning to G27A U28A, the self-cleavage is 0.77.
The same measure for G27A U28C: 0.87; for A26U G36U: 0.09; for G27C U32C: 0.12.
Turning to G27C U32G, the self-cleavage was 0.08.
To G27C U32A belongs 0.09; to G27U A41C, 0.06.
In the case of G27U A41G, the self-cleavage was 0.27.
The same measure for G27U A41U: 0.49; for G27U G44C: 0.82.
To G27U G44U belongs 0.37; to G27U G44A, 0.43; to G27U C42G, 0.04.
For the variant G27U C42U, the self-cleavage came out at 0.2.
Consider G27U C42A, for which the self-cleavage turned out to be 0.17.
G27C G36C: the self-cleavage was determined as 0.09.
To G27C G36A belongs 0.35.
To G27C G36U belongs 0.05.
Regarding U28A U34C, the self-cleavage is 0.07.
Take U28A U34A: the self-cleavage stood at 0.44.
For U28A U34G, the self-cleavage is 0.11.
To G27A G33A belongs 0.1; to G27A G33U, 0.17; to G27A G33C, 0.08.
In the case of G27C A41U, the self-cleavage amounted to 0.25.
Consider G27C A41G, for which the self-cleavage stood at 0.25.
Take G27C A41C: the self-cleavage stood at 0.03.
The same measure for U28C C46G: 1.68; for U28C C46A: 0.66; for U28C C46U: 0.51.
For the variant G27U C37G, the self-cleavage turned out to be 0.03.
To G27U C37U belongs 0.07; to G27U C37A, 0.03.
For the variant U28G G35A, the self-cleavage is 0.14.
For U28G G35C, the self-cleavage is 0.07.
Consider G27U G40U, for which the self-cleavage came to 0.13.
For G27U G40A, the self-cleavage turned out to be 0.13.
Take G27U G40C: the self-cleavage was 0.16.
On to G27C U43C, for which the self-cleavage worked out at 0.07.
In the case of G27C U43A, the self-cleavage was 0.09.
In the case of G27A C31A, the self-cleavage was found to be 1.09.
To G27A C31U belongs 0.26.
Consider G27A C31G, for which the self-cleavage was determined as 0.2.
The same measure for U28G G29U: 0.61.
With U28G G29C, the self-cleavage was 0.53.
With U28G G29A, the self-cleavage came out at 0.34.
Turning to U28A C42G, the self-cleavage was found to be 0.02.
To U28A C42A belongs 0.12; to U28A C42U, 0.22.
